Laboratory results reported in US20220024992A1, “COMPOSITIONS AND METHODS COMPRISING LYSOCINS AS BIOENGINEERED ANTIMICROBIALS FOR USE IN TARGETING GRAM-NEGATIVE BACTERIA” (The Rockefeller University, priority 2018, published 2022).
In brackets after ≈: the same amount, converted by molar mass. Read-outs that look alike come from different tables or passages of the source.

Legend:
[1] = test system: P. aeruginosa strains; assay: MIC and MBC, modified CLSI broth microdilution, CAA medium; assay type: cell-based; conditions: strain 453, FpvA type I
Protocol: The MIC and MBC values were calculated using a modified version of the broth microdilution assay as previously described by the Clinical and Laboratory Standards Institute (CLSI) (45). The specific modifications were to the bacterial concentration and growth medium used. […] CAA medium was used for Gram-negative bacteria to simulate low iron conditions. Alternatively, MHB was used for Gram-positive bacteria due to their inability to grow in CAA medium. Bacterial growth was assessed by measuring the OD600 nm using a SpectraMax M5 microplate reader (Molecular Devices). The MIC was defined as the lowest antimicrobial concentration that inhibits bacterial growth. To determine the MBC, the contents from each well originating from the MIC microtiter plate was plated on CAA agar to quantitate bacterial viability. The MBC was defined as the lowest antimicrobial concentration required to kill ≥99.9% of the initial bacterial inoculum. Growth and sterility controls were included.

[2] = test system: pseudomonal PG (autoclaved P. aeruginosa); assay: Muralytic plate lysis assay on autoclaved Pseudomonas; assay type: biochemical; conditions: 25 pmol spotted
[3] = target: FpvAII receptor (Pseudomonas aeruginosa); assay: cell-based or functional assay
[4] = target: ferripyoverdine A type I (FpvAI) receptor (Pseudomonas aeruginosa) (UniProt P48632); assay: cell-based or functional assay
[5] = target: FpvAIII receptor (Pseudomonas aeruginosa); assay: cell-based or functional assay
[6] = test system: P. aeruginosa strains; assay: MIC, CLSI broth microdilution in CAA medium with EDDHA
Protocol: The FpvA receptor type for all P. aeruginosa strains used was determined using multiplex PCR, as previously described (67). […] CAA medium consisting of 0.5 mg/ml EDDHA was used instead of MHB. All P. aeruginosa strains were initially inoculated in CAA medium and grown overnight at 37° C. with aeration. The bacteria were then pelleted, washed and resuspended in CAA medium with EDDHA. Using a 96-well U-bottom microtiter plate, P. aeruginosa at a final concentration of 5×10^5 CFU/ml were incubated statically at 37° C. with 0.002-256 μg/ml lysocin in CAA medium with EDDHA for a total of 48 h. Growth (bacteria incubated in growth medium absent lysocin) and sterility controls (growth medium only) were included for each dataset. At the culmination of the experiment, each plate was visually inspected for bacterial growth. All samples were assayed in triplicate. The MIC was defined as the lowest concentration of lysocin that inhibited observable bacterial growth.

[7] = test system: P. aeruginosa strain 453; assay: Cell viability assays with 0.5 μM antimicrobial
Protocol: P. aeruginosa strain 453 were grown under iron-depleted conditions (see Bacterial Strains and Growth Conditions). The bacteria were harvested, washed and resuspended in fresh CAA medium with 0.5 mg/ml EDDHA. Using a 96-well flat-bottomed microtiter plate, the bacteria at ˜10^6 CFU/ml were incubated statically at 37° C. with either growth medium only (untreated control) or 0.5 μM purified antimicrobial. A 2 h incubation was used for the single time point experiments, whereas a 4 or 6 h incubation was used for the multiple time point assays. At various time points, an aliquot was removed from each sample, serially diluted and plated on CAA agar. After incubating the agar plates for up to 48 h at 37° C., colonies were counted in order to quantitate the CFU/ml concentration of surviving bacterial cells. Modifications were introduced to the aforementioned cell viability assay protocol for the experiment using P. aeruginosa grown in the presence of varying free iron concentrations. First, P. aeruginosa strain 453 were grown using iron-depleted or iron-rich conditions (CAA medium supplemented with 100 μM FeSO4) at 37° C. with aeration for a total of 16-18 h and subsequently assayed for lysocin sensitivity in PBS, pH 7.4. For the experiment analyzing lysocin activity in the presence of lung surfactant or serum, P. aeruginosa were incubated with or without lysocin in beractant ([sequence]; Abbvie) or HuS diluted 1:1 with 20 mM sodium phosphate, pH 7.0.

[8] = Pseudomonas aeruginosa, read-out: MBC
[9] = Pseudomonas aeruginosa, read-out: MIC

Row | Compound | MIC, P. aeruginosa strain 445 (FpvAII) [3] [µg/mL] | MIC, P. aeruginosa strain 448 (FpvAII) [3] [µg/mL] | MIC, P. aeruginosa strain 451 (FpvAII) [3] [µg/mL] | MIC, P. aeruginosa strain AR468 (FpvAII) [3] [µg/mL] | MIC, P. aeruginosa strain 447 (FpvAI) [4] [µg/mL] | MIC, P. aeruginosa strain 453 (FpvAI) [4] [µg/mL] | MIC, P. aeruginosa strain AR465 (FpvAI) [4] [µg/mL] | MIC, P. aeruginosa strain AR469 (FpvAI) [4] [µg/mL] | MIC, P. aeruginosa strain AR470 (FpvAI) [4] [µg/mL] | MIC, P. aeruginosa strain AR474 (FpvAI) [4] [µg/mL] | MIC, P. aeruginosa strain PAO1 (FpvAI) [4] [µg/mL] | MIC, P. aeruginosa strain 443 (FpvAIII) [5] [µg/mL] | MIC, P. aeruginosa strain 450 (FpvAIII) [5] [µg/mL] | MIC, P. aeruginosa strain AR471 (FpvAIII) [5] [µg/mL] | further results
1 | C[C@@H](O)[C@H]1C(=O)N2C(C(=O)O)=C(S[C@@H]3CN[C@H](C(=O)N(C)C)C3)[C@H](C)[C@H]12 [Meropenem, meropenem, reference compound] |  |  |  |  |  |  |  |  |  |  |  |  |  |  | MBC [1, 8]: 8 µg/mL (≈ 20.9 µM); MIC [1, 9]: 8 µg/mL (≈ 20.9 µM)
2 | NC[C@H]1O[C@H](O[C@H]2[C@H](O)[C@@H](O[C@H]3O[C@H](CO)[C@@H](O)[C@H](N)[C@H]3O)[C@H](N)C[C@@H]2N)[C@H](N)C[C@@H]1O [Tobramycin, tobramycin, reference compound] |  |  |  |  |  |  |  |  |  |  |  |  |  |  | MBC [1, 8]: 0.25 µg/mL (≈ 0.535 µM); MIC [1, 9]: 0.125 µg/mL (≈ 0.267 µM)
3 | CEWL: Chicken egg white lysozyme, positive control for muralytic activity [reference compound] |  |  |  |  |  |  |  |  |  |  |  |  |  |  | muralytic activity (clearing zones) on autoclaved P. aeruginosa [2]: Clearing zones
4 | PyS2-GN4 lysocin |  |  |  |  |  |  |  |  |  |  |  |  |  |  | MIC, P. aeruginosa strain 445 (FpvA type II) [3]: > 256 µg/mL; MIC, P. aeruginosa strain 446 (FpvA type II) [3]: > 256 µg/mL; MIC, P. aeruginosa strain 448 (FpvA type II) [3]: > 256 µg/mL; MIC, P. aeruginosa strain 449 (FpvA type II) [3]: > 256 µg/mL; MIC, P. aeruginosa strain 451 (FpvA type II) [3]: > 256 µg/mL; MBC, P. aeruginosa strain 453 (FpvA type I) [4]: 0.25 µg/mL; MIC, P. aeruginosa strain 452 (FpvA type I) [4]: 4 µg/mL; MIC, P. aeruginosa strain 453 (FpvA type I) [4]: 0.25 µg/mL; MIC, P. aeruginosa strain MDR-M-3 (FpvA type I) [4]: 2 µg/mL; MIC, P. aeruginosa strain PAO1 (FpvA type I) [4]: 2 µg/mL; MIC, P. aeruginosa strain 443 (FpvA type III) [5]: > 256 µg/mL; MIC, P. aeruginosa strain 450 (FpvA type III) [5]: > 256 µg/mL
5 | PyS2-I-GN3 lysocin | > 256 | > 256 | > 256 | > 256 | 8 | 4 | 4 | 8 | 4 | 4 | 8 | > 256 | > 256 | > 256 | 
6 | PyS2-I-GN4 lysocin | > 256 | > 256 | > 256 | > 256 | 4 | 0.25 | 4 | 8 | 8 | 4 | 4 | > 256 | > 256 | > 256 | 
7 | PyS2-I-PlyPa03 lysocin | > 256 | > 256 | > 256 | > 256 | 4 | 0.25 | 2 | 4 | 8 | 4 | 4 | > 256 | > 256 | > 256 | 
8 | PyS2-I-PlyPa03: PyS2 aa 1-209, GSx3 linker, P. aeruginosa lysin PlyPa03 (aa 2-144) |  |  |  |  |  |  |  |  |  |  |  |  |  |  | activity towards strains ([6]; P. aeruginosa strains expressing FpvAII and FpvAIII): ineffective; MIC ([6]; strain 443, FpvAIII): >256 µg/mL; MIC ([6]; strain 445, FpvAII): >256 µg/mL; MIC ([6]; strain 447, FpvAI): 4 µg/mL; MIC ([6]; strain 448, FpvAII): >256 µg/mL; MIC ([6]; strain 450, FpvAIII): >256 µg/mL; MIC ([6]; strain 451, FpvAII): >256 µg/mL; MIC ([6]; strain 453, FpvAI): 0.25 µg/mL; MIC ([6]; strain AR465, FpvAI): 2 µg/mL; MIC ([6]; strain AR468, FpvAII): >256 µg/mL; MIC ([6]; strain AR469, FpvAI): 4 µg/mL; MIC ([6]; strain AR470, FpvAI): 8 µg/mL; MIC ([6]; strain AR471, FpvAIII): >256 µg/mL; MIC ([6]; strain AR474, FpvAI): 4 µg/mL; MIC ([6]; strain PAO1, FpvAI): 4 µg/mL; muralytic activity (clearing zones) on autoclaved P. aeruginosa [2]: degraded pseudomonal PG; decrease in viability of Pseudomonas ([7]; 1 h, iron-chelated CAA medium): 3.6 log10; killing of Pseudomonas ([7]; 2 h, 50% HuS): 4.5 log10; killing of P. aeruginosa ([7]; 2 h, 50% beractant (SURVANTA)): 3.6 log10; killing of P. aeruginosa ([7]; 4 h, iron-chelated CAA medium): 6.2 log10
9 | colistin [reference compound] |  |  |  |  |  |  |  |  |  |  |  |  |  |  | MBC [1]: 0.5 µg/mL; MIC [1]: 0.5 µg/mL
